Source: PMC5762634, “Domain swapping and SMYD1 interactions with the PWWP domain of human hepatoma-derived growth factor”

B1: 5-bp SMYD1 (dsDNA)
DNA 1: CAGGC
DNA 2: GCCTG
B2: 15-bp SMYD1 (dsDNA)
DNA 1: CAGGCTGGTCTTGAA
DNA 2: TTCAAGACCAGCCTG

Target: HDGF PWWP domain (human, UniProt P51858 1-100)
Experiment: size-exclusion chromatography; 5 mM EDTA; SEC: 20 mM Tris-HCl pH 7.5, 5 mM EDTA, 5 mM beta-ME, no added salt; protein:DNA 1:1, incubated overnight at 4 C
Conditions: protein: recombinant; tags: His tag (pET28a, NdeI/EcoRI, Ni-NTA); chain copies: 2; blunt

HDGF PWWP domain, sequence (P51858 1-100): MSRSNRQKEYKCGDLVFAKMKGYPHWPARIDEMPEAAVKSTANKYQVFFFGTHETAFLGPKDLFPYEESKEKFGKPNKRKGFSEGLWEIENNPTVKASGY

Binder | binding result
B1 | binds
B2 | binds
